Here are results for 70 sequences from the domain aggregation screens of Martell et al. (2025).

Bounds are passed on as bounds.
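Note: 20 min heating vs room temperature control held 20 min.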

This data set is described as follows: soluble fraction after stress (log2 fold change); higher = more stays soluble; pooled small domains, quantitative proteomics. Conditions: stress: 75 degC.
As to “HMPEQLLNTRIPLEFAGRRFDASLAELFPDYSRSRLAAWIKDGAARLDGETVAPRHTVRGGEQVEILVRM”, the “soluble fraction (log2)” value was -0.729.
As for “HMPERLTYVHPDGAEPMRADKALAAFLSGRISRSRLLGSFSAGKVMAGGKPVEKKLLLRAGDALEVELPEP”, the “soluble fraction (log2)” value was -0.239.
Then “HMPERMLEPLLNGNEIMKVTQLQPGPKVGLIRDALLQAQISGDVTDTESAKAFVQDYAKRNI”, with 0.0453; and “HMPESETIMVDVKGAVQSEGVYELPSTARVNDAIEAAGGFSDQADKKSVNLAQKLSDEAVVYVASQGENV”, with 0.76.
Consider “HMPEVTMSYSARNQVVSFSKATQYEIVDEFGTVVLRGVGNQATLRYLSRGDYFVNFGAGTEVLKK”, for which the “soluble fraction (log2)” value was -0.0464.
In the case of “HMPEVYSFEVNEGAAGKRLDIFLSGEIEGLTRSFIQKLISEGMATVNQEPPRASYRVKTRDLVELQIPDPE” it was -0.334; in that of “HMPFDWSAFDWKGWADEALAIIKTANQDQMNKWTEDNEKIIVQAETAAPDIYKTVGDEYDKKMESFN”, 0.0145.
Take “HMPFESEMKHWIHLFAHELNLKVSDKYTQKIIEIFGNNFSEIFNEMSKSSLVSSNEKDLLNALEKSGNIH”: the “soluble fraction (log2)” value was -0.799.
As to “HMPFGIYGGKVSSLDDLKDKAAVLVPNDVSNEARALLLLEAQGLIKLKEGVGLEATRNDIVEN”, the “soluble fraction (log2)” value was no less than 1.04.
Then “HMPFTLDGVNEGSRNDQAARMSGYLISKNLNMDFIKFFMQSWNRQNSPPLSQREINSVVDNVKRTHDRKNK”, with -1.88; and “HMPGKVSDAGATAKDNRLFLEAVFWRVRTGSPWRDLPPAFGHWNSQFRRFRRWAKAGVFESLFNA”, with 0.182; and “HMPGRKKLAIIYKNDYIGAFNLADSYRDSYEVSMYAFPKKVGKLLNRLELQGFNAYVIYDKDNEENNFNTI”, with -1.82.
For the sequence “HMPGSGELSRRLELAIRDRTAVRVTAAAAGQERSFTLLPVAITSGRLRATDEQAGVQRTLPLSAIVAVEA”, the “soluble fraction (log2)” value was -0.179.
Take “HMPGTEAQDGEVLLDALRRIHPDSSTGTLRRMLTQGRVQVDGTTVHAAKAELTSGQHVEVVAR”: the “soluble fraction (log2)” value is 0.136.
“HMPIDIEPVLQWIRDNSIDGIGPARSMYHSAAAAAGLPSYSSLQLRKWTWPLLLDAAGVQRR”: the “soluble fraction (log2)” value was -0.427.
As to “HMPIRMLQVQKTNTGYLNVRDTPSVSGALIGKVFPGDMLSSTEERDGWFLVAVPQGGTGWVSGDYVKTTS”, the “soluble fraction (log2)” value is -0.191.
“HMPKAPHETLSRREMEVLLLLSEGVTLTRIGDTIHVSVKTVSTYRARILQKLDLQSNAELTRYVLQHKL”: the “soluble fraction (log2)” value was -5.8.
In the case of “HMPKHDWDAFAGAIARRVHDHGMPVSQGELVRDMMDWFAGRKDFPPPDERTVRRKVSAIWRELNG” it was -1.38.
Then “HMPKIPRLTLTETAGIMGVSQRALALAIQQGMYSWAQALPGRNKKRPIYFINAITFAKAQGIDLEEYK”, with -1.13; and “HMPKKLIWERTTSKLQLYITQDRYELKTPLMTIPFTSKSKMMVYLQQRYHLDMQEYRQIYDAG”, with -2.28.
As for “HMPKMDGLTVMEQVNQDHFVNKRPYFIVITAVGQEKITEDAFNKGANYYVMKPFNNNMLLERIKSVRK”, the “soluble fraction (log2)” value is 0.642.
For “HMPKYLNIYHELAQRIQEGALPAETKLPSETELMQEFEASRGTVRKAIDALQEKGFVRKHQGKGVFVLSQ”, the “soluble fraction (log2)” value is -0.00712.
As for “HMPLDYNELRSISPKAARQAILQILAANKGNVSATAKLLGVSRKTVYKAMHKKASGNLDDTSRAPK”, the “soluble fraction (log2)” value was -1.74.
In the case of “HMPLITAIELDSISARSFQFNTQSGSTYFIEGSTDLKSWDVIAEVKATDSTTTYEDHRKIYHEAYFYRVRL” it was -1.84.
In the case of “HMPLITDIKIQVKNTEKVSLFVDGKYSFSLTISQLAEHKILKTNQEISAKQVAEFKKLSNLTNLYIRIVG” it was -0.305; in that of “HMPLITLSAEIQSEQIGQRLDQTLAELFPEYSRSRLKTWIEADLVKLNNQIVNIPREKVLGGEHVEITVDI”, -1.09.
For the sequence “HMPLNRFLNLPHEDKERVLLIAKKQFSTHGYDAMSLNLLLKELDISKGQFYYWFEDKADLFFTVL”, the “soluble fraction (log2)” value is -0.11.
Then “HMPLRPNQRQFIHLMVYQGLDRNEAYAQANNKVLTEENYESIRTAAAKTFYTPHVNNYYHALMEEIRDRE”, with -0.471.
Then “HMPLSVRQRMSDILSNLKTSDFTNFADLFDPKEGRTGITVTFIAILELLREFLIEVVQSDHYQPLHVRAAS”, with -0.213; and “HMPLTAASLQTYLRGVDYPASKQDLIAHARKSDAPEDAITVLEQYSEQTYRSAADVSAEFGS”, with 0.109; and “HMPLTEMAVRKHLSAELAQKGYTIDPRALEILLQRTNTNLTAIANELPKLLLVAEDKQITVNEVSAM”, with -0.319.
Then “HMPLTKKLETLFSLFPKYEKELKKKGVTRIHVWANYKEEYPDGIGRSQFIHYYSFWKKQVSP”, with -0.154.
“HMPLVIIRGIEGVFSSEEKAEAIRKVTDALVSVKGENVRGFAWVVFEEVKSGDWGIGGESITAEKVIMSL”: the “soluble fraction (log2)” value stood at 0.158.
Consider “HMPMDDETWDALSLFAYKRYARENGWPLMIGAEALRDTFASYFPLDSSTWQDRSSHYLTYQDGIYTRT”, for which the “soluble fraction (log2)” value is -0.247.
Then “HMPMDYFELFNIPRNANRETIKKILDQEYEKYRARVVSPVLEIRHEAELMLVEISKAKQVLLG”, with -1.08.
In the case of “HMPMHPEDLKKLVSIEMPFGKHKGRIIADLPGNYLNWFAREGFPPGEIGRLLQLMQEIDHNGLSDLLKPLR” it was -0.521.
As for “HMPMNISDIIKQAREELGMTQEDLAERLEVSRQAVSKWELGASVPSPENLRLLEELLGVELPAP”, the “soluble fraction (log2)” value was -0.198.
With “HMPNFDPSYILDFGDVIQLQLVGQKNQILEIPILRDGSVNLPDIGKIFLSGMSLEEATKIIKDTYSA”, the “soluble fraction (log2)” value is -0.931.
As for “HMPNGEAYQRFTYENDILEGRFEEWDSLGTDIVKGDYTAGVRHKKWLYYDSEGRRDKFVFLDMDSI”, the “soluble fraction (log2)” value was 0.116.
Turning to “HMPNNNDIVLDRVSFGYHEKEVLHGIDMTIREGTVNALVGPSGSGKSTIAKLIAGLWDVDGGSISF”, the “soluble fraction (log2)” value is 0.555.
In the case of “HMPNPSAGRVHIDALLPFDRVEVTDMQGSLLLDHSFSPRRAVDLDLNARGTLLYTLWSKGHLLGKGRVVR” it was -0.606; in that of “HMPNQLLELVEMEIRDLLNEYEFPGDDTPIIQGSALKALEDPMGPWGDKIMDLMDAVDSYIPDPE”, -0.686.
As for “HMPPAIKTLMFMIQNKSLLKSPKQLAVVQQQLKKIKGVRDVLILLEEGKVMLKVNKHETIHEASIIRLLGG”, the “soluble fraction (log2)” value was -1.87.
Turning to “HMPPALTELLSVRTNASGTIDYLLPDRSAGLRVENGSKYSGMVPDSIYRLVAIYEIKDAKEPSAYIYTI”, the “soluble fraction (log2)” value was -0.0495.
As for “HMPPFDDILAEYYEPLYRHVRRMVVSHDDAKDVMQEAMLRIFQGLDGLKDPSAVRTWVWRIATNEALRH”, the “soluble fraction (log2)” value was -0.0914.
Regarding “HMPPPVDLDKKGYKLRGIVLEDGRSAAFVFVPAEKRVVVLRENASGPVRLLETGMRRIRLQTPEGAGYLEL”, the “soluble fraction (log2)” value is -1.36.
On to “HMPPQPATQNTKAQVMQLAREKELMAGEGRGANVEALEKFANEHGISLRGMTEEQAEQLVKLLMEYTP”, for which the “soluble fraction (log2)” value was -0.239.
Turning to “HMPPRFVPATGADLRRWLDVSGLTAEAAGDLLGVSGARFRQWLSRYRSAPLPDPVRALLVALLRP”, the “soluble fraction (log2)” value is -0.00746.
In the case of “HMPPSRFNELSMWFQEQLTEAGLKVDSGALKMLIEWLGQDQARLPSIIEVLVSTYGTKKKLTVDEIEPFL”, the “soluble fraction (log2)” value is -0.384.
“HMPPTSADGIEKYLASGMIRGVGPVYAKKLVSAFGDKVFDIIEAAPHQLQEVEGIGRVRAASILAAWAEQ”: the “soluble fraction (log2)” value was -0.549.
In the case of “HMPQLEDLEPLDSSGMVRRDGPHLVLAVGRHRGRHLEEVRDSDPSYLHWLLSPKGIEDIQAKEDIKTYLNL” it was -0.0235; in that of “HMPQLVGDVDGDGRVSVTDGEWIRASYGALPWYAGWRAAADLDGSRKIDVVDLELLRTKMGN”, -0.334.
In the case of “HMPRIYSITINPEKIRTVIGPGGKVIKDITAKTGTKIEIDDSGKVDIFSPDEEHARMAVEIINTLTEE” it was 0.0671; in that of “HMPRKYFPFYFTFRETAQTMPPRLRAVFYEAIIEYGTTGKEPTLPKSIAGYWPLVKPTLDSAKAHYDAG”, -3.62; in that of “HMPRNEIQRSVLNELVQWIKNNLAKKLTMQALSRFSGYSEWHLFRLFRHYFNMSPMAYIRQQRMQ”, -0.366.
Then “HMPRPRIHSVVRGDTLYGISRQYGVAMSKLASLNGLKSPYRIMVGRSLRLPSAIEAERDRTAREVVQ”, with -1.53; and “HMPRVLSSYTLTLRHQPTAEAVALVRTLLSPAGSVEVKEDGRTLVVRDELAALSRIVGALRSFDH”, with -0.851; and “HMPRVSIEKIKKVVELLKHNPDYTYSKIGNIVGIGRKTVSGINNGKLYTDLVEELGINEFPI”, with -0.459.
In the case of “HMPRYQQIARQLKTAIEHGELKPGARLPSSRTWSQELGISRSTVESAYTELVAQGWLERRGQAGTFVSAQL”, the “soluble fraction (log2)” value was -1.04.
On to “HMPRYSGMFAAWLHKALARMGKSMSDSARSAFTERVELDYSSANNELQKLSLLVGDRKVITEADVMRAIG”, for which the “soluble fraction (log2)” value is -0.86.
In the case of “HMPSALGDKIRAARKALKLSLEDLAEKVSSSKSYMWELENRDEPNPGADLLMRIAAALNVTTEHLLGP” it was -0.28.
In the case of “HMPSDLQATLRAVQGMLQGVEGVDARLAGQRILLEGDSADARARERAAAIAGIFPGVVIDFVG” it was -0.263.
Regarding “HMPSEAVQNIIGNVKSKRRVATIGQARGLASNVIKEGKFDNVSNTAMVNRLIDLGIISNSIGYQ”, the “soluble fraction (log2)” value was -0.0616.
In the case of “HMPSEQGANKARDIIFRHHMKVDVWVGSWENARNYAEQAIKQGVKVIISRGGTAALLRHSLDTAIIKVR” it was 0.14; in that of “HMPSGLFEPIKKSELSIESIDLLKDQIRAFKQADIRITFGFLLDLITKGENPAYVNASKLFEQAWER”, 0.141.
Then “HMPSPSTLAKVDPFLLVTNADSLLMARPDDSELRAAIITAHINLAKTNNSVDHYKEVLKIEPQNALANYN”, with 0.17; and “HMPSPTPEQVLKAFTDAAMQKNTVEELKQAFAKAWKMLEGTPEQHKAQDVYNIRRDELEGAA”, with 0.376.
In the case of “HMPSSIEGIEKYLGSGMIRGIGAVYAKRLVKQFGKDVFDIIEETPERLREVEGIGPIRAARIISGWADQ” it was -0.363.
For the sequence “HMPTITSPMVGTFYRAPSPGAAPFIEVGDTVKKGQVIGIIEAMKLLNEVEADKDGVVQAFAAENGEL”, the “soluble fraction (log2)” value is -0.335.
In the case of “HMPTLNIVDGHIAASDGVRILSIHNVTGRRYATSSKLPAGIYIVVLMPAKAETPLTVKVIVEA”, the “soluble fraction (log2)” value was -1.42.
